In patent US6096512:

How the values were obtained:
[1] = biological target: bovine cytochrome C, native (bovine) (UniProt P62894)
[2] = biological target: bovine cytochrome C, reduced and carboxymethylated (bovine) (UniProt P62894)
[3] = biological target: T1, bovine rhodanese, native (bovine) (UniProt P00586)
T1 sequence: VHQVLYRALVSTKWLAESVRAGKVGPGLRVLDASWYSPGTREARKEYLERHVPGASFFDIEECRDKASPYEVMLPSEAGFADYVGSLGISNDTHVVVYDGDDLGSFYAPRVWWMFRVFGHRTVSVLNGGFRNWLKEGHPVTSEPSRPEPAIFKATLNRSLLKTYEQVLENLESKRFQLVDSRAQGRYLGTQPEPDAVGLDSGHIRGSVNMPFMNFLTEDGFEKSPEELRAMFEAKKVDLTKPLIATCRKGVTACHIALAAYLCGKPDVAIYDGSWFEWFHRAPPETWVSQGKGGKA

[4] = biological target: T2, bovine rhodanese, reduced and carboxymethylated (bovine) (UniProt P00586)
T2 sequence (chain, reduced and carboxymethylated): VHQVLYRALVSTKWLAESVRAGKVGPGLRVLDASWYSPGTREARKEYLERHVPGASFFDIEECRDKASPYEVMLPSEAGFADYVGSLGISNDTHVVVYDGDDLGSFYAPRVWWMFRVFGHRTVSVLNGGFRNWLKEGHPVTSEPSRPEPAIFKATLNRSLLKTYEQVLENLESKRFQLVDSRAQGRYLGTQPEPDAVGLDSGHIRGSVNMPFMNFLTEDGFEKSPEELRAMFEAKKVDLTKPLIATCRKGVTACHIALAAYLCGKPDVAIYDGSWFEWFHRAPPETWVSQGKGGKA

[5] = biological target: subtilisin, reduced and carboxymethylated
[6] = biological target: T3, synthetic acceptor peptide Arg-Ser-Pro-Pro-Pro
T3 sequence (peptide): RSPPP

[7] = biological target: T4, synthetic acceptor peptide Arg-Thr-Pro-Pro-Pro
T4 sequence (peptide): RTPPP

[8] = biological target: synthetic acceptor peptide Pro-Pro-Ala-D-Ser-Thr-D-Ser-Ala-Pro-Gly

B1: bovine colostrum UDP-GalNAc:polypeptide, N-acetylgalactosaminyltransferase (purified soluble enzyme) (enzyme)
chain: GLPAGDVLEPVQKPHEGPGEMGKPVVIPKEDQEKMKEMFKINQFNLMASEMIALNRSLPDVRLEGCKTKVYPDNLPTTSVVIVFHNEAWSTLLRTVHSVINRSPRHMLEEIVLVDDASERDFLKRPLESYVKKLKVPVHVIRMEQRSGLIRARLKGAAVSKGQVITFLDAHCECTVGWLEPLLARIKHDRKTVVCPIIDVISDDTFEYMAGSDMTYGGFNWKLNFRWYPVPQREMDRRKGDRTLPVRTPTMAGGLFSIDRDYFQEIGTYDAGMDIWGGENLEISFRIWQCGGTLEIVTCSHVGHVFRKATPYTFPGGTGQIINKNNRRLAEVWMDEFKNFFYIISPGVTKVDYGDISSRLGLRHKLQCRPFSWYLENIYPDSQIPRHYFSLGEIRNVETNQCLDNMARKENEKVGIFNCHGMGGNQVFSYTANKEIRTDDLCLDVSKLNGPVTMLKCHHLKGNQLWEYDPVKLTLQHVNSNQCLDKATDEDSQVPSIRDCSGSRSQQWLLRNVTLPEIF
Product formed nmol/min/mg (transfer of N-acetylgalactosamine to protein acceptors) [1]: < 0.1 nmol/min/mg | Product formed nmol/min/mg (transfer of N-acetylgalactosamine to protein acceptors) [2]: < 0.1 nmol/min/mg | Product formed nmol/min/mg (transfer of N-acetylgalactosamine to protein acceptors) [3]: < 0.1 nmol/min/mg | Product formed nmol/min/mg (transfer of N-acetylgalactosamine to protein acceptors) [4]: 3.3 nmol/min/mg | Product formed nmol/min/mg (transfer of N-acetylgalactosamine to protein acceptors) (myelin basic protein): 22.2 nmol/min/mg | Product formed nmol/min/mg (transfer of N-acetylgalactosamine to protein acceptors) (subtilisin, native): < 0.1 nmol/min/mg | Product formed nmol/min/mg (transfer of N-acetylgalactosamine to protein acceptors) [5]: 0.6 nmol/min/mg | Vmax /Km M^-1 s^-1 [6]: 0.4 M⁻¹ s⁻¹ | Km [7]: 3.3 mM | Vmax /Km M^-1 s^-1 [7]: 183 M⁻¹ s⁻¹ | Vmax /Km M^-1 s^-1 [8]: 1.2 M⁻¹ s⁻¹
